Non-standard residues stand in square brackets, D forms with d. Residues, ends and D or L forms follow the SMILES beside them. No end group written: not given here. Met(O) = CS(=O)CC[C@H](N)C(=O)O; pS = N[C@@H](COP(=O)(O)O)C(=O)O
Columns and labels:
[1] = tested on: MRL/lpr mice; assay: Survival analysis in MRL/lpr lupus mice; type: in vivo, mouse; conditions: female MRL/lpr mice, intravenous, 20 mice per group; NaCl control 25 weeks
Description: It has been determined that this mouse strain carries a mutation in the fas gene. Also, the MRL/lpr is a useful model to study behavioural and cognitive deficits found in autoimmune diseases and the efficacy of immunosuppressive agents [Monneaux et al., 2003, Eur. J. Immunol. 33, 287-296].
Five-week-old female MRL/lpr mice received P140 or peptide P140(MO) intravenously as described (Monneaux et al., 2003, Eur. J. Immunol. 33, 287-296). All experimental protocols were carried out with the approval of the local Institutional Animal Care and Use Committee (CREMEAS). As control, mice were injected with NaCl.
Twenty mice were used for each peptide or NaCl.
Statistical tests were performed using GraphPad Prism version 5.0. The two-way ANOVA test was used to analyze statistical significance of proteinuria differences between control and peptide-treated groups of mice. Survival of control and P140 analogue-treated female MRL/lpr mice was analyzed by the Kaplan-Meier method, and the significance of differences was determined by the log-rank test. For the other variables, statistical significance was assessed using the Student's t-test. p values less than 0.05 were considered significant.

[2] = tested on: MRL/lpr mice; assay: Proteinuria analysis in MRL/lpr mice (Albustix); type: in vivo, mouse; conditions: compared to the untreated mice
Description: Proteinuria of the above mice was measured in fresh urine using Albustix (Bayer Diagnostics) and was semi-quantitatively estimated according to a […] recommended by the manufacturer (no proteinuria=0; traces=1; 1+=2; 2+=3; 3+=4; 4+=5).

[3] = target: T1, HSC70 protein (Bos taurus, UniProt P19120); assay: BIAcore binding of peptides to immobilized HSC70; parameters: species or system bovine
T1 construct: purchased Stressgen
Description: BIAcore 3000 system (Biacore AB) was used to evaluate the binding of P140 peptides to HSC70 protein (Page et al., 2009, and 2011). Sensor chip CM5, surfactant P20, amine coupling kit containing N-hydroxysuccinimide (NHS) and N-ethyl-N′-dimethylaminopropyl carbodiimide (EDC), 2-(2-pyridinyldithio)ethaneamine (PDEA) and ethanolamine were from Biacore AB. Biosensor assays were performed with HBS-EP buffer as running buffer (10 mM HEPES, 150 mM NaCl, 3 mM EDTA, 0.005% surfactant P20, pH 7.4). The compounds were diluted in the running buffer. The sensor chip surface was regenerated after each experiment by injecting 10 μL of 10 mM HCl. Recombinant bovine HSC70 (Stressgen) was immobilized on flow cells of a CM5 sensor chip through its thiol groups using 35 μL PDEA in 50 mM borate buffer, pH 8.3 on the NHS/EDC-activated matrix. Then, 35 μL of HSC70 (100 μg/mL in formate buffer, pH 4.3) were injected until a response of 13,000 response units (RU) corresponding to 13 ng/mm^2 of HSC70 was immobilized. Twenty μL of a 50 mM cysteine/1 M NaCl solution was used to saturate unoccupied sites on the chip. The direct binding measurement of P140 peptides to HSC70 was carried out at 25° C. with a constant flow rate of 20 μL/min. P140 peptide and analogues were injected in the flux at different concentrations for 3 min, followed by a dissociation phase of 3 min. The kinetic parameters were calculated using the BIAeval 3.1 software on a personal computer. Analysis was performed using the simple 1:1 Langmuir binding model. The specific binding profiles were obtained after subtracting the response signal from the control empty channel and from blank-buffer injection. The fitting to each model was judged by the χ^2 value and randomness of residue distribution compared to the theoretical model.

[4] = tested on: MRL/lpr mice; assay: Cellularity analysis of peripheral blood in MRL/lpr mice; type: in vivo, mouse; conditions: 100 μg/100 μL single injection, 5 days after
Description: MRL/lpr mice were injected with 100 μg/100 μL of P140 or P140(MO) and cellularity (preipheral blood) was studied 5 days after this unique injection. The count includes all the leucocytes. In view of the low number of tested mice, a non parametric statistical test has been realised Mann-Whitney).

[5] = target: Recombinant bovine HSC70 (Stressgen) (bovine) (UniProt P19120); assay: SPR, BIAcore 3000; HSC70 immobilised, peptide injected at 6.25 µM; 1:1 Langmuir fit
[6] = target: Recombinant bovine HSC70 (Stressgen) (bovine) (UniProt P19120); assay: SPR, BIAcore 3000; HSC70 immobilised, peptide injected at 1.56 µM; 1:1 Langmuir fit
[7] = target: Recombinant bovine HSC70 (Stressgen) (bovine) (UniProt P19120); assay: SPR, BIAcore 3000; HSC70 immobilised, peptide injected; 1:1 Langmuir fit; row for analyte at 6.25 µM
[8] = target: Recombinant bovine HSC70 (Stressgen) (bovine) (UniProt P19120); assay: SPR, BIAcore 3000; HSC70 immobilised, peptide injected; 1:1 Langmuir fit; row for analyte at 3.12 µM
[9] = target: Recombinant bovine HSC70 (Stressgen) (bovine) (UniProt P19120); assay: SPR, BIAcore 3000; HSC70 immobilised, peptide injected; 1:1 Langmuir fit; row for analyte at 25 µM
[10] = target: Recombinant bovine HSC70 (Stressgen) (bovine) (UniProt P19120); assay: SPR, BIAcore 3000; HSC70 immobilised, peptide injected at 12.5 µM; 1:1 Langmuir fit
[11] = target: Recombinant bovine HSC70 (Stressgen) (bovine) (UniProt P19120); assay: SPR, BIAcore 3000; HSC70 immobilised, peptide injected; 1:1 Langmuir fit; row for analyte at 12.5 µM
[12] = target: Recombinant bovine HSC70 (Stressgen) (bovine) (UniProt P19120); assay: SPR, BIAcore 3000; HSC70 immobilised, peptide injected; 1:1 Langmuir fit; row for analyte at 1.56 µM
[13] = target: Recombinant bovine HSC70 (Stressgen) (bovine) (UniProt P19120); assay: SPR, BIAcore 3000; HSC70 immobilised, peptide injected at 25 µM; 1:1 Langmuir fit
[14] = target: Recombinant bovine HSC70 (Stressgen) (bovine) (UniProt P19120); assay: SPR, BIAcore 3000; HSC70 immobilised, peptide injected at 3.12 µM; 1:1 Langmuir fit

T1 sequence (P19120 whole entry): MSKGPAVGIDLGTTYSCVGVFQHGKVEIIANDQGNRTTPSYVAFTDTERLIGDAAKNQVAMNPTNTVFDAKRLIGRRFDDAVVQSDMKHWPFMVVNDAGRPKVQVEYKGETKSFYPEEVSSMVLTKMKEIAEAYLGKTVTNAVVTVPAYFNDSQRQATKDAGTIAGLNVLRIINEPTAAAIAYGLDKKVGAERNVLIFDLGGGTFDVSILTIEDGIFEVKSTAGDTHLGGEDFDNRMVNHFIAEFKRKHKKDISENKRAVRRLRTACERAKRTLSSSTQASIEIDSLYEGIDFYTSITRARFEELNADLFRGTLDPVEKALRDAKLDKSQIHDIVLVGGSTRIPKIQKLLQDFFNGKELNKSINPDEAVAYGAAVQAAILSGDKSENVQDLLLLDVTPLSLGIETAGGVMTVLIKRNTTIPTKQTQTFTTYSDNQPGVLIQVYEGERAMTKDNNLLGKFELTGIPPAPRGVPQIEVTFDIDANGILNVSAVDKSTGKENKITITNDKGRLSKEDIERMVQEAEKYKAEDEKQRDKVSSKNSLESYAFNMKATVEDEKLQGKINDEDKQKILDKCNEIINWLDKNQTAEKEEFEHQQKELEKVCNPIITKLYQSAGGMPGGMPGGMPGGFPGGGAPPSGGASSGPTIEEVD
Chain of Recombinant bovine HSC70 (Stressgen) (bovine) (P19120 whole entry): as above

In the case of `CC[C@H](C)[C@H](NC(=O)[C@H](Cc1ccccc1)NC(=O)[C@H](C)NC(=O)[C@H](Cc1ccc(O)cc1)NC(=O)CNC(=O)[C@H](CCCNC(=N)N)NC(=O)[C@@H]1CCCN1C(=O)[C@H](CCCCN)NC(=O)CNC(=O)[C@H](COP(=O)(O)O)NC(=O)[C@H](CCCNC(=N)N)NC(=O)[C@H](CCCCN)NC(=O)[C@H](CO)NC(=O)[C@H](Cc1ccc(O)cc1)NC(=O)[C@@H](NC(=O)[C@H](CC[S+](C)[O-])NC(=O)[C@H](Cc1c[nH]cn1)NC(=O)[C@@H](NC(=O)[C@@H](N)CCCNC(=N)N)[C@@H](C)CC)C(C)C)C(=O)N[C@@H](CCC(=O)O)C(=O)N[C@@H](Cc1ccc(O)cc1)C(=O)O` (stereo partly drawn) [P140(MO), RIHM(O)VYSKRS(PO3H2)GKPRGYAFIEY] (H-RIH[Met(O)]VYSKR[pS]GKPRGYAFIEY-OH), the Median survival [1] is reported as over 40 weeks, the Proteinuria [2] is reported as “less important and appears lately” and the “Rmax (RU)” value ([3]; 25° C., 1:1 Langmuir model) is reported as 39 RU. For the same molecule, the kon ([3]; 25° C., 1:1 Langmuir model, analyte 1.56-25 μM, read-out: ka) was 1150 M⁻¹ s⁻¹, the “Affinity for HSC70, oxidized vs non-oxidized peptide (in words)” value ([3]; P140 compared with P140 M(O)) was “not statistically different” and the “Req (RU)” value ([3]; peptide 1.56 μM) was 17.6 RU. For the same molecule, the “Req (RU)” value ([3]; peptide 3.12 μM) was 24.2 RU, the “Req (RU)” value ([3]; peptide 6.25 μM) was 29.9 RU and the “Req (RU)” value ([3]; peptide 12.5 μM) was 33.9 RU. For the same molecule, the “kobs” value ([3]; peptide 12.5 μM) was 0.0166 s⁻¹, the “Req (RU)” value ([3]; peptide 25 μM) was 36.3 RU and the “kobs” value ([3]; peptide 25 μM) was 0.031 s⁻¹. The Peripheral hypercellularity [4] was “decrease peripheral hypercellularity”.

RIHMVYSKR[pS]GKPRGYAFIEY [P140 peptide (SEQ ID NO: 1 in which serine at position 10 is phosphorylated; SEQ ID NO: 4)] showed a Req [5] of 39.5 RU, a kobs [5] of 0.00593 s⁻¹ and a Req [6] of 15.3 RU. For the same molecule, the kobs [6] was 0.00382 s⁻¹, the Ka [7] was 144000 M⁻¹ and the Kd [7] was 6.94 µM. The koff [7] was 0.00312 s⁻¹, the Ka [8] was 144000 M⁻¹ and the Kd [8] was 6.94 µM. It also gave a koff [8] of 0.00312 s⁻¹, a Ka [9] of 144000 M⁻¹ and a Kd [9] of 6.94 µM. The koff [9] was 0.00312 s⁻¹, the Req [10] was 53.6 RU and the kobs [10] was 0.00874 s⁻¹. For the same molecule, the Ka [11] was 144000 M⁻¹, the Kd [11] was 6.94 µM and the koff [11] was 0.00312 s⁻¹. For the same molecule, the Ka [12] was 144000 M⁻¹, the Kd [12] was 6.94 µM and the koff [12] was 0.00312 s⁻¹. For the same molecule, the Req [13] was 65.2 RU, the kobs [13] was 0.0144 s⁻¹ and the Req [14] was 25.8 RU. For the same molecule, the kobs [14] was 0.00452 s⁻¹.

RIH[Met(O)]VYSKR[pS]GKPRGYAFIEY was tested, and the Req [5] was 29.9 RU, the kobs [5] was 0.0094 s⁻¹ and the Req [6] was 17.6 RU. For the same molecule, the kobs [6] was 0.004 s⁻¹, the Ka [7] was 524000 M⁻¹ and the Kd [7] was 1.91 µM. For the same molecule, the koff [7] was 0.0022 s⁻¹, the Ka [8] was 524000 M⁻¹ and the Kd [8] was 1.91 µM. It also gave a koff [8] of 0.0022 s⁻¹, a Ka [9] of 524000 M⁻¹ and a Kd [9] of 1.91 µM. The koff [9] was 0.0022 s⁻¹, the Req [10] was 33.9 RU and the kobs [10] was 0.0166 s⁻¹. For the same molecule, the Ka [11] was 524000 M⁻¹, the Kd [11] was 1.91 µM and the koff [11] was 0.0022 s⁻¹. For the same molecule, the Ka [12] was 524000 M⁻¹, the Kd [12] was 1.91 µM and the koff [12] was 0.0022 s⁻¹. It also gave a Req [13] of 36.3 RU, a kobs [13] of 0.031 s⁻¹ and a Req [14] of 24.2 RU. It also gave a kobs [14] of 0.0058 s⁻¹.

From US20210308211A1, “METHOD OF TREATING VIRAL INFECTIONS” (priority 2020, published 2021)
